The target of the experiment is LlaKI restriction endonuclease (Lactococcus lactis KLDS4 (endogenous)). Nature of the experiment: SEC; Sephadex G-200 10/30 column, buffer B-100 (10 mM Tris-HCl pH 7.5, 1 mM EDTA, 10 mM 2-Mercaptoethanol, 100 mM NaCl), 0.5 mL/min; calibrated with protein standards; LlaKI found by assay of cleavage activity of the fractions; native about 112 kDa against 50 kDa denatured.

One may read the stoichiometry N as a count of units in the complex or per binding partner.

LlaKI restriction endonuclease (enzyme) showed a stoichiometry N of 2.

(Values after PMC4392985.)
